Data taken from US20110311556A1 (LFB BIOTECHNOLOGIES, published 2011).
Each block holds one binder with its values, some of them ahead of it.

Experiments:
[1] = molecular target: T1, Rhesus D antigen (RhD) on Rhesus D positive red blood cells group O R1R1 (human, UniProt Q02161 2-417); assay: cytometric determination of anti-D specific activity on red blood cells
T1 construct: whole, on cells
T1 sequence (looked up): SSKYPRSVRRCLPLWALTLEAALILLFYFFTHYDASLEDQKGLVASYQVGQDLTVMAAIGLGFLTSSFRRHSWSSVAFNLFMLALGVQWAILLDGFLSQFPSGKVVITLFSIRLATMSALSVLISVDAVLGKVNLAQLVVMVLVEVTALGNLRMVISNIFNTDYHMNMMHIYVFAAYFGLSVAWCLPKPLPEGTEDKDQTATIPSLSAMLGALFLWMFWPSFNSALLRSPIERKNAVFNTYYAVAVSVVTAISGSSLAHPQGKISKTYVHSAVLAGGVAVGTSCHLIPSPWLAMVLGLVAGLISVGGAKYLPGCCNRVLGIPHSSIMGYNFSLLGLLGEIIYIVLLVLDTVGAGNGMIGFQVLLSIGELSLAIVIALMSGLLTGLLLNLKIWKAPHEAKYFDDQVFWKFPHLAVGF

[2] = molecular target: CD16 (FcγRIII receptor) (UniProt P08637 17-254, limits assumed); assay: cell-based or functional assay
CD16 (FcγRIII receptor), sequence (P08637 17-254 limits assumed): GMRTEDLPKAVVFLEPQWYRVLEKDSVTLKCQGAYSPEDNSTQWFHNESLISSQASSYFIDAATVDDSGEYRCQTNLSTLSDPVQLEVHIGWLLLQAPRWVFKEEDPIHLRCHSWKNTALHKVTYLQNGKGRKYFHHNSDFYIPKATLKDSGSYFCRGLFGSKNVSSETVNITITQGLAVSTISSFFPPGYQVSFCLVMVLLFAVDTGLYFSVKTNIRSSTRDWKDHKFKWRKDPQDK

binding result [1]: binds
ADCC activity: EC50 (antibody concentration producing 50% of maximum activity) [2]: 0.02 µg/mL
B1: non-mutant (C68) anti-D antibody (sequence of the R297 antibody of clone T125 A2) (antibody, human IgG1, kappa)
heavy: not shown
light: AIRMTQSPSSFSASTGDRVTITCRASQDIRNYVAWYQQKSGKAPKFLIYAASTLQSGVPSRFSGSGSGTDFTLTINSLQSEDFATYYCQQYYNSPPTFGQGTRVEITRTVAAPSVFIFPPSDEQLKSGTASVVCLLNNFYPREAKVQWKVDNALQSGNSQESVTEQDSKDSTYSLSSTLTLSKADYEKHKVYACEVTHQGLSSPVTKSFNRGEC
notes: IgG1 tetramer; also called non-mutant (C68) antibody; T125 anti-D antibody

binding result [1]: binds
ADCC activity: EC50 (antibody concentration producing 50% of maximum activity) [2]: 0.021 µg/mL
B2: R593 antibody (mutant (F68) anti-D antibody) (antibody, human IgG1, kappa)
heavy: not shown
light: B1 light
notes: Tetrameric IgG1 with kappa light chain, two heavy and two light chains; Phenylalanine at heavy chain position 68 (67 by Kabat); Produced in the YB2/0 line; also called mutant (F68) antibody; mutant F68 antibody
